From patent US20220289830A1 (STAIDSON BEIJING BIOPHARMACEUTICALS, published 2022)
Positions count from the first letter of the chain named.

B1: 7C1 (antibody, V domains shown)
VH: EVQLLESGGGLVQPGGSLRLSCTASGFTFSDNHMSWVRQAPGKGLDWVSGISESGGSTNYADSVKGRFSTSRDNSKSTLYLDMNSLRAEDTAIYYCAKGRFSTSSSHFYRAVYGMDVWGQGTAVTVSS
VL: DIQLTQSPSSLSASVGDRVTITCRASQGISSYLAWYQQKPGKAPKLLIYAASTLQSGVPSRFSGSGSGTDFTLTISSLQPEDFATYYCQQLSSYPLSFGGGTKVEIK
notes: also called optimized anti-PcrV mAb clone 7C1
B2: 3A9 (antibody, V domains shown)
VH: B1 VH with N32Y, H33S, T103D, S105T, S106K, Y109F
VL: B1 VL
notes: also called optimized anti-PcrV mAb clone 3A9
B3: 2B1 (antibody, V domains shown)
VH: B1 VH with D31S, N32Y, H33P, T103G, S104E, S106H, Y109F
VL: B1 VL
notes: also called optimized anti-PcrV mAb clone 2B1
B4: 13-42 mAb (antibody, V domains shown)
VH: B1 VH with N32Y, H33P, Y60D, S102C, S104N, H107C, Y109F
VL: B1 VL
B5: 3B12 (antibody, V domains shown)
VH: B1 VH with D31S, T103D, S104E, S105Y, S106G, Y109F
VL: B1 VL with S97T
notes: also called optimized anti-PcrV mAb clone 3B12
B6: 3G3 (antibody, V domains shown)
VH: B1 VH with N32Y, H33P, N59Y, Y60D, T103A, S105A, S106G, Y109F
VL: B1 VL with S30R
notes: also called optimized anti-PcrV mAb clone 3G3
B7: 5B3 (antibody, V domains shown)
VH: B1 VH with N32Y, H33P, Y60D, T103Q, S104D, S106Y, Y109F
VL: B1 VL
notes: also called optimized anti-PcrV mAb clone 5B3
B8: 7B2 (antibody, V domains shown)
VH: B1 VH with N32Y, H33P, S104D, Y109F
VL: B1 VL
notes: also called optimized anti-PcrV mAb clone 7B2
B9: 4A10 (antibody, V domains shown)
VH: B1 VH with D31S, N32Y, H33P, T103D, S104A, S106E, Y109F
VL: B1 VL with A43T, S97T
notes: also called optimized anti-PcrV mAb clone 4A10
B10: 6A10 (antibody, V domains shown)
VH: B1 VH with Y109F
VL: B1 VL
notes: also called optimized anti-PcrV mAb clone 6A10
B11: 3A11 (antibody, V domains shown)
VH: B1 VH with D31S, N32Y, T103Q, Y109F
VL: B1 VL with S97T
notes: also called optimized anti-PcrV mAb clone 3A11
B12: 3H10 (antibody, V domains shown)
VH: B1 VH with N32Y, H33P, Y60D, T103D, S104Y, S106Q, Y109F
VL: B1 VL with S92N, S97T
notes: also called optimized anti-PcrV mAb clone 3H10
B13: 6D10 (antibody, V domains shown)
VH: B1 VH with N32Y, H33P, S104D
VL: B1 VL
notes: also called optimized anti-PcrV mAb clone 6D10
B14: 7B1 (antibody, V domains shown)
VH: B1 VH with H33Y, G50V, S104L, Y109F
VL: B1 VL with S97T
notes: also called 7B1-IgG1; 7B1 mAb
B15: 8C1 (antibody, V domains shown)
VH: B1 VH with S104N, S106A, Y109F
VL: B1 VL with S97T
notes: also called optimized anti-PcrV mAb clone 8C1

What was measured:
[1] = molecular target: T1, recombinant Pseudomonas aeruginosa PcrV, full-length (PAO), His-tagged (Pseudomonas aeruginosa); test: BLI
[2] = molecular target: T2, native PcrV on live Pseudomonas aeruginosa (strains O6-57/66, O11-PA103, O1-52/66, O16-177/81) (Pseudomonas aeruginosa); test: cell-based or functional assay
[3] = molecular target: T2, native PcrV on live Pseudomonas …; test: cell-based or functional assay; remark: listed apart in the source
[4] = molecular target: T2, native PcrV on live Pseudomonas …; test: cell-based or functional assay; remark: listed apart in the source
[5] = molecular target: T1, recombinant Pseudomonas aeruginosa …; test: SPR (BIACORE)
[6] = molecular target: T2, native PcrV on live Pseudomonas …; test: cell-based or functional assay; remark: listed apart in the source
[7] = molecular target: T1, recombinant Pseudomonas aeruginosa …; test: ELISA, PcrV coated on the plate, goat anti-human Fc-AP detection

Binder	Kd [1] [nM]	RBC lysis Average IC50 over the three strains [2] [µg/mL]	RBC lysis IC50, strain O1-52/66 [2] [µg/mL]	RBC lysis IC50, strain O6-57/66 [2] [µg/mL]	RBC lysis IC50, strain O16-177/81 [2] [µg/mL]	A549 cell lysis Average IC50 over the strains [3] [µg/mL]	A549 cell lysis IC50, strain O1-52/66 [3] [µg/mL]	A549 cell lysis IC50, strain O6-57/66 [3] [µg/mL]	A549 cell lysis IC50, strain O11-PA103 [3] [µg/mL]	A549 cell lysis IC50, strain O16-177/81 [3] [µg/mL]	A549 cytotoxicity assay IC50 (P. aeruginosa strain PA103(O11)) [4] [µg/mL]	Kd [5] [nM]	RBC lysis assay IC50 (P. aeruginosa strain 57/66(O6)) [6] [µg/mL]	EC50 [7] [µg/mL]
B1	0.101	0.195	0.367	0.0767	0.141	1.18	2	0.496	1.12	1.09	1.36	0.0457	0.1	0.134
B2	0.533										1.21		0.23	0.116
B3	0.194										3.01		0.12	0.162
B4	0.414	0.355	0.472	0.13	0.464	1.38	2.34	0.891	1.21	1.08	2.67		0.23	0.132
B5	0.167										2.68		0.16	0.118
B6	0.381										2.75		0.18	0.0936
B7	0.455										2.39		0.12	0.109
B8	0.0875										2.32		0.05	0.0967
B9	0.606										2.8		0.16	0.113
B10	0.204										2		0.04	0.104
B11	0.126										0.91			0.0952
B12	0.779										1.78		0.16	0.149
B13											2.63	0.052	0.16	
B14	< 0.001	0.214	0.308	0.138	0.197	2.13	4.56	0.503	2.61	0.861	1.06	0.0847	0.1	0.125
B15	0.33	0.266	0.424	0.121	0.252	1.05		0.721	1.54	0.881	1.94	0.0316	0.12	0.111
